Measurements taken from the DeepSol protein solubility set.

Test: soluble on expression in E. coli; label from the status in PepcDB or PDB records

Row | Sequence | soluble on expression in E. coli
1 | MSLLFYVAYLGFYIAPTKLVRNKIKSWLLNASEYDFTDIKEGIRLHLNESPFEPPQFIIDAVKMYLSKGNRYQHPDLLEKYRELAAEYSKVEPENIYPSVGADGSIRAIFYNLVEPGDTILTNYPSYSMYSVYSSVRGTKVIKVNLKEDNEWWKENTDDLLAQAEKVELVIIDDPNNPTGSPMLNGKKELIGQLAENTKGFVVIDEAYYEFGGYTVSPYIYDYPNVLVVRTLSKAFSLASYRLGYTIANEEIVKALMKSSTPFDIPLPSLIAGITALENPSYIKDVVNIVNRNREILYQGLKNLNLKVYKSITNFLLIKDNRNLQEMLMRHGIAIRKLYDNFYRITIGTEDQCKMVIDKLGEELENSNSEGHHHHHH | not soluble
2 | MSLLQEMTIKNFAIIESLSLTFQEGMTVLTGETGAGKSIIIDALGLLVGGRGSADFIRHGEERLELQGLFALAEDNLACRNALIENGIDASDDMVVLERSLFRSGKNSCRINGKLVTTVLLRQIGSKLIDIHSQHEHQELMNEEFHLSLLDRFASDKIKPALTKYQTNFKEYQTIEKEWQNWTKNERELAQRLDMLRFQQQEIENANLQAGEEDRLLEQKNILANFEKLNENLQGAYAAIQGEPGGLEFVGEAMRQMEAAASIHTDYKAVSEAISSSYYMLEDSMSQIRQSLDQLEFQPEELNQIESRLNDLNQLKRKYGKTIEDIIQYEQEISSEMEKLTDSESHVGHLETKLATLKAELTKQANTLTEIRKKAAVTLEKQIKQELNHLYMEKAIFSVRFEANKMELTDSGQDSVVFYMSTNPGEPLKPLAKIASGGELSRMMLALKTIFSRHQGITSIIFDEVDTGVSGRVGQAIAEKIYAVSVGSQVLCISHLPQVAAMANHHYYITKKVQNKRTTTSVTVLKGEEKVEEISRMIAGIEVTELTKQHAKEMIEQAEKVKQTYEGHHHHHH | soluble
3 | MSLLQVAPSAYRRHAARQRCPKLRSARSQRDEGLMAEIRRVWQANMQVYGVRKVWYQLQREGIAVARCTVERLMRRLGLQGVRRGKRVRTTIADGSQACSLDRVNRHFHADRPNQLWVSDFTYVSTWQGWLYVAFVIDVFARRIVGWRVSTTMSTDFVLDALEQALYDRRPAESLIHHSDRGSQYVSIRYTERLAEAGIEPSVGSRGDSYDNALAETINGLYKAELIHRRAPWKTRAAVELATLEWVAWYNHQRLLGSIGYIPPAQAEELYHRTHSETVPMNAVLEGHHHHHH | not soluble
4 | MSLLVLGIESSCDETGVALYDTERGLRAHCLHTQMAMHAEYGGVVPELASRDHIRRLVPLTEGCLAQAGASYGDIDAVAFTQGPGLGGALLAGSSYANALALALDKPVIPVHHLEGHLLSPLLAEEKPDFPFVALLVSGGHTQIMAVRGIGDYALLGESVDDAAGEAFDKTAKLLGLLYPGGAKLSELAESGRFEAFVFPRPMIHSDDLQMSFSGLKTAVLTAVEKVRAENGADDIPEQTRNDICRAFQDAVVDVLAAKVKKALLQTGFRTVVVAGGVGANRKLRETFGNMTVQIPTPKGKPKHPSEKVSVFFPPTAYCTDNGAMIAFAGAMHLGKGREVGAFNVRPRWPLSEIVREGHHHHHH | soluble
5 | MSLMAVNVNTNVAAMTAQRYLTGATNAQQTSMERLSSGFKINSAKDDAAGLQISNRLNVQSRGLDVAVRNANDGISIAQTAEGAMNETTNILQRMRDLSLQSANGSNSKSERVAIQEEITALNDELNRIAETTSFGGNKLLNGTFSTKSFQIGADNGEAVMLTLKDMRSDNRMMGGTSYVAAEGKDKDWKVQAGANDITFTLKDIDGNDQTITVNAKEGDDIEEVATYINGQTDMVKASVNEKGQLQIFAGNNKVTGDVAFSGGLAGALNMQAGTAETVDTIDVTSVGGAQQSVAVIDSALKYVDSHRAELGAFQNRFNHAISNLDNINENVNASKSRIKDTDFAKETTALTKSQILSQASSSVLAQAKQAPNAALSLLG | soluble
6 | MSLMPFHLAIPVHDLPAARRFYGEVFGLSEGRSAEHWVDFDFFGHQLVIHQHPQTDSQRHAGSNPVDGHDVPVPHFGVVLAWDDWHALAERLQQRGTRFVIEPYIRFKGQVGEQATLFLFDPCGNALEFKSFRDMGQLFAKLEHHHHHH | soluble
7 | MSLNAQLNDLGPIKAVIFDMDGLLLDTEGIYTEITQLIAERYGRTYDWTIKQNIIGRGAGDLARYVVQALDLPISAEEFLVMREPLMRERFPRAQAMPGAQELVRHLKEHRIPIAVGTSSSQMSFGEKTTRHGDWFALFDTIVTADDPEVTAAKPAPDIFLTAARRLGVAPAECLVFEDSPFGVTAARAAGMSVIAVPDPAMADSKFAHAHGIIRSLKGFQPAACGLPHLHWDEGHHHHHH | soluble
8 | MSLNDQIKIRKATKEDWEKIYQLYNSLSDEDLYLRFFHLYRITEEDAKKIASNEDHVTFLAEVDGKVVGEASLHKDGEFSLVVHRNYRTLGIGTLLVKTLIEEAKKSGLSTVKFYTLPENTPMIKIGRKLGFKMRFYEDEVYGEMRLTERELNVNLATFSAPEGHHHHHH | soluble
9 | MSLNDTVTVRISFAVNIATRVIAEVPLFSLTKPSHQELLQKIAEQSRSPFNYPDVGASLCEFPSGYEHHHHRVRLGRGQEVFDRAKEALGNWRQFDVGWVEAIPSDTSITVGNTIAIRVRIFGVWAMAFDRIVDVYGEQDGECRRFGFSVGTLTEHPEQGEERFSIEIDREDHVDYEVAAFFRPNTLAAKMAWPVLHRRFNRFRNQSAEAMQLACKLGPSSEGHHHHHH | not soluble
10 | MSLNEMEKRPEDTRVVVGMSGGVDSSVAALLLKEQGYDVIGIFMKNWDDTDENGFCTATEDYEDVIRVCNQIGIPYYAVNFEKQYYEKVFQYFLDEYKAGRTPNPDVLCNKEIKFKAFLEHALSLGADYLATGHYARVDRSGGKVRMLRGIDENKDQTYFLNQLTEDTLSKVMFPIGELQKSRVREIAKEAELATATKKDSTGICFIGERNFKTFLSQYLPAQPGDMMTMDGEVKGRHDGLMYYTIGQRHGLGIGGSGEPWFAVGKDLEKNILYVDQGFHNPLLYSDKITATNISWVRSDIMKGEEISCTAKFRYRQEDHKVTVRMTGEGEAEVIFDEQVRAVTPGQAVVFYDGEECLGGGTIDDVYKDGTKLWYVEGHHHHHH | soluble
11 | MSLNHPDYKLNLRSPGTPRGVSSVVGPSAVGASPGDKKSKNKSMRGKKKSIFETYMSKEDVSEGLKRGTLIQGVLRINPKKFHEAFIPSPDGDRDIFIDGVVARNRALNGDLVVVKLLPEDQWKAVKPESNDKEIEATYEADIPEEGCGHHPLQQSRKGWSGPDVIIEAQFDDSDSEDRHGNTSGLVDGVKKLSISTPDRGKEDSSTPVMKDENTPIPQDTRGLSEKSLQKSAKVVYILEKKHSRAATGILKLLADKNSDLFKKYALFSPSDHRVPRIYVPLKDCPQDFMTRPKDFANTLFICRIIDWKEDCNFALGQLAKSLGQAGEIEPETEGILTEYGVDFSDFSSEVLECLPQSLPWTIPPDEVGKRRDLRKDCIFTIDPSTARDLDDALACRRLTDGTFEVGVHIADVSYFVPEGSSLDKVAAERATSVYLVQKVVPMLPRLLCEELCSLNPMTDKLTFSVIWKLTPEGKILEEWFGRTIIRSCTKLSYDHAQSMIENPTEKIPEEELPPISPEHSVEEVHQAVLNLHSIAKQLRRQRFVDGALRLDQLKLAFTLDHETGLPQGCHIYEYRDSNKLVEEFMLLANMAVAHKIFRTFPEQALLRRHPPPQTKMLSDLVEFCDQMGLPMDVSSAGALNKSLTKTFGDDKYSLARKEVLTNMYSRPMQMALYFCSGMLQDQEQFRHYALNVPLYTHFTSPIRRFADVIVHRLLAAALGYSEQPDVEPDTLQKQADHCNDRRMASKRVQELSIGLFFAVLVKESGPLESEAMVMGVLNQAFDVLVLRFGVQKRIYCNALALRSYSFQKVGKKPELTLVWEPDDLEEEPTQQVITIFSLVDVVLQAEATALKYSAILKRPGLEKASEGHHHHHH | soluble
12 | MSLNIIERQKLTQSLKLSQMMKLSINILKMSVMDLNKFIEKEFSEDSGISVELNYSKKENFNGGKEAEMNYPTDEKNFFQILEEQLSYFKINKKIKEICIFIINNLDKKGYLELSKIEIKDILEVSNKELEEAFDIIHNLEPYGIGAYSLEECLKIQLKAKKIIEEKLSLFIDNYLYLLADKKYDLIKEKLNINDNILFSYIDIIKSLNPIPSRGYSVGKVRKIIPDVLVEIKKNEIFYEINRASIPQINVKDKIEDEGHHHHHH | not soluble
13 | MSLNIIRLLAESLPRISDGNENTDVWVNDMKFKMAYSFLNDDIDVIERELEQTVRSDYPLLSEAGLHLLQAGGKRIRPVFVLLSGMFGDYDINKIKYVAVTLEMIHMASLVHDDVIDDAELRRGKPTIKAKWDNRIAMYTGDYMLAGSLEMMTRINEPKAHRILSQTIVEVCLGEIEQIKDKYNMEQNLRTYLRRIKRKTALLIAVSCQLGAIASGADEKIHKALYWFGYYVGMSYQIIDDILDFTSTEEELGKPVGGDLLQGNVTLPVLYALKNPALKNQLKLINSETTQEQLEPIIEEIKKTDAIEASMAVSEMYLQKAFQKLNTLPRGRARSSLAAIAKYIGKREGHHHHHH | soluble
14 | MSLNKESLKEYLSSRYQGWSSFLNNVIFPIFGEDDFEDGFETELLESQPERRQLAEATGIRSIKQVGMMYVGVEPLQIFDVTVSDRVMMEHNRVNIQRLIRAVMDQFSCAFMLFHYEDDTRWDWRFTYCRKSGNKEESTDSKRYTFLLGPGQSCRTATDNFIALYDKRNSLEIKDIENAFNVEALSKEFFGKYKAQYEAFVNYMVDPTNGMRQHFIDTGFDHTGMAADKIRDREEKPIRDYVKKLLGRIVFLHFLQKKGWLGVPASKEWGEGDRDFMLNIFKNANERQKENFLDDILEDLFTEGLDRNRSDQGDLYDTKVEGFRNCRIPYLNGGLFERDILDKKPSHFPASYFNGLLTMLSQYNFTIDENDPNDAEVGVDPEMLGRIFENLLEDNKDKGAFYTPKEIVQYMCRESLIAYLQTDMREEDKECIRQFVTTHDASQLGELKEYIDQKLYDVKICDPAIGSGAFPMGLLRELFFCRSAIEPNIVENAANIKRHIIQNNIYGVDIERGAVDIARLRFWLSLIVDEKSPEALPNLDFKIMQGNSLLEQYKGVDLSTEGHHHHHH | soluble
15 | MSLNLIKYGLTTAVQADLTKENGQILGRIIGQHRDWYQVITTAGERSAQVTGKLAYEAASPAAFPAVGDWVCLSSSADNQAQIEAIAPRQSVLARGAVNRQDGQIIATNINTIFICMSLNADFNVRRLERYLTIAWDSGALPVIVLTKADLCTDLATKLRAVADVSVGVPTITCSVETGQGLDELQPYLTTGQTVAFVGSSGVGKSTLINRLLGQDILATKSIRTDDNKGRHTTTSRQLIPLPTGACVIDTPGMRELQIFMGDLNQTFAEIAALATQCKFNDCTHTSEPGCAVRAAVEVGTVTSERLQSYQKLQREMSYQGEGHHHHHH | soluble
16 | MSLNNPTPKIDQTNNIVIGQKINPDKMHRAKEFRRQMTPAEKILWQHLRGNRLNGLHFRRQQIIDGFIADFYCHAARLVIEVDGKIHELQAEYDAERDRVLLARGLRLLRVKNEEVVQEIDQVLMLISEVCCEETEGHHHHHH | soluble
17 | MSLNNYKIFISAGESSGDIHGANLMRSLLKKNPNITFYGLGKERMNEAGLHCLCDMKTKSLMWLHALTELSAFLRMKKDCVRFFQHETPCAVILIDYCGFNFQLARAAKKLKIPVIYYITPQLWAHGPWRIKKLRKLVDFLIVIYPFEKSFYETSGLPVTYVGHPLFDELDRERRINNHLSMEEKQVGEYIVSLLPGSRKQEIIRLLPLLLRAAKQIKQTIPSIKILVSCTSEQYFSLIRLIVEASHLPAEIIVGCVRKIIQSSDICLAGSGTVTLQIAYYHTPMLIVYKISPFAYFIARPFLTTPYIGLVNILANKMIVPETLMCSNNYSRLANQAIELLRNNQKRHLCIENLRSLMDDIGKPGASERAAEEIFRFLRQETEGHHHHHH | not soluble
18 | MSLNPPLPHFRYHPEPLASGSIEASATTCQCCGKARGYVYTGSPYSRHELPPGSLCPWCIADGSAAARYEASFSDDYPLLDAGVAADIVTEVCERTPGYTSWQRERWLVCCEDACAFRGDAGREEIGQLGAEGLAQRFADFAWPAITWQRLVDAYTPGGNPAIYRFDCLHCGQAHYDLDFTEGGSHHHHHH | soluble
